Results reported in US20100209422A1 (ROCKEFELLER UNIVERSITY, published 2010).

Experiments:
[1] = target: T1, protofibrillar (PF) form of Aβ42 (human); test: SPR (BIAcore), ratio of PF binding to LMW binding
T1 construct: also called PF Aβ42; protofibril form of Aβ
Protocol: (§1) The purified monoclonal antibodies listed in Table 1 (below), were immobilized to a BIAcore sensor chip in accordance with publish protocols. (Nice, et al. BioEssays 21: 339-352 (1999)). The high sensitivity of the BIAcore optical response quantifies a change in reflectivity and a baseline response for the ligand alone is generated. The interaction analysis is performed as the analytes, the LMW form or the PF form of […], are injected in solution over the sensor chip and the change in surface plasmon resonance generates a response identifying the specificity of each antibody's ability to bind LMW and PF Aβ42. Both the 13C3 and the 19A6 antibodies all bound to the PF form of Aβ 42 with higher specificity than the LMW form.

[2] = target: T1, protofibrillar (PF) form of Aβ42; test: SPR (BIAcore), ratio of PF binding to LMW binding; remark: listed apart in the source
Protocol: as §1
Automated BIAcore systems, which use the detection principle of Surface Plasmon Resonance, were used in these experiments.

T1 sequence (peptide, as listed by the source): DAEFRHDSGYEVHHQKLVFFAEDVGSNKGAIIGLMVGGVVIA

B1: monoclonal antibody 13C3 (antibody, IgG1, V domains shown)
VH: QVQLQQSGPELVRPGVSVKISCKGSGYTFTDYAMHWVKQSHAKSLEWIGVISTKYGKTNYNQKFKGKATMTVDKSSSTAYMELARLTSEDSAIYYCARGDDGYSWGQGTSVTVSS
VL: DVVMTQTPLSLPVSLGDQASISCRSGQSLVHSNGNTYLHWYLQKPGQSPKLLIYTVSNRFSGVPDRFSGSGSGSDFTLKISRVEAEDLGVYFCSQNTFVPWTFGGGTKLEIKR
notes: Hybridoma ATCC PTA-8830; also called mAb 13C3; anti-Aβ antibody clone 13C3
Question: B1 was tested. Which “Ratio (PF/LMW)” value [1] did it give?
Answer: 5

Question: What about the “binding ratio (PF/LMW)” value [2] of the same binder?
Answer: 5.3
